Results published in paper PMC3718333.

Target: recombinant MHJ_0125 (polyhistidine fusion of the M42 glutamyl aminopeptidase MHJ_0125 of Mycoplasma hyopneumoniae) (Mycoplasma hyopneumoniae (strain J))
Assay: SEC; 10 µg purified rMHJ_0125 on Superdex 200 (3.2 x 300 mm), 20 mM Tris-HCl pH 8.0, 50 µl/min; markers blue dextran, apoferritin, myoglobin

“recombinant MHJ_0125 (polyhistidine fusion of the M42 glutamyl aminopeptidase MHJ_0125 of Mycoplasma hyopneumoniae) (enzyme)” showed a stoichiometry N of 12.
